{"source": "patent US20240197828A1", "about": "“Chimeric molecule to treat sepsis and other inflammatory conditions” (THE FEINSTEIN INSTITUTES FOR MEDICAL RESEARCH, priority 2022, published 2024)", "key": {"RAW264.7 cells": {"tested_on": "RAW264.7 cells", "experiment": "eCIRP-induced cytokine release in RAW264.7 cells (ELISA of supernatants)", "type": "cell-based, mouse", "details": "RAW264.7, rmCIRP 1 μg/mL, 4 hours", "experimental": "FIG. 2. Effects of MOP peptides on TNFα levels. RAW264.7 macrophages were cultured and treated with either volume-equivalent PBS, recombinant murine (rm) CIRP (eCIRP; 1 μg/mL), or rmCIRP with each respective peptide (10 μg/mL). After 4 hours, cell supernatants were assessed for TNFα levels by ELISA. Experiments were performed 3 times, and all data were used for analysis. Data are expressed as mean±SEM and compared by one-way ANOVA and SNK test. *p<0.05 vs. PBS, #p<0.05 vs. eCIRP.\nFIG. 4. eCIRP-induced inflammation is attenuated by MOP3. RAW264.7 cells were treated according to respective groups: PBS (volume equivalent), rmCIRP (1 μg/mL), or rmCIRP with MOP3 at increasing doses. After 4 hours, cell supernatants were analyzed for TNFα levels by ELISA. […] Data are expressed as mean #SEM and compared by one-way ANOVA and SNK test. *p<0.05 vs. PBS, #p<0.05 vs. eCIRP.\nComputational modeling was used to determine the likely domain of MFG-E8's binding to eCIRP. […] Binding of MOP3 to CIRP was quantified using Surface Plasmon Resonance (SPR) analysis. […] After 1 h, cells were fixed and analyzed for intracellular FITC-rmCIRP by flow cytometry. […] After 4 h, cell culture supernatants were analyzed for inflammatory cytokine, TNFα. […]\nThe mouse macrophage cell culture supernatants were analyzed for cytokine levels using ELISA kits (BD Biosciences, CA). […]"}, "RAW264.7 macrophages": {"tested_on": "RAW264.7 macrophages", "experiment": "Intracellular uptake of FITC-rmCIRP by macrophages (flow cytometry, confocal microscopy)", "type": "cell-based, mouse", "experimental": "FIG. 3. Effects of MOP peptides MOP-3, MOP-8 and MOP-14 on eCIRP. Flow cytometry experiment whereby RAW264.7 macrophages were treated for 1 hour according to respective group: PBS (volume-equivalent), FITC-rmCIRP (1 μg/mL), or a mixture of FITC-rmCIRP (1 μg/mL) with each respective peptide (10 μg/mL) after co-incubating for 30 minutes. Intracellular FITC-rmCIRP was analyzed by flow cytometry. Median fluorescence intensity (MFI) reported as percentage relative to PBS-treated RAW264.7 cells. Data from two independent experiments are expressed as mean±SEM and compared by one-way ANOVA and SNK test. *p<0.05 vs. PBS, #p<0.05 vs. eCIRP.\nComputational modeling was used to determine the likely domain of MFG-E8's binding to eCIRP. The known amino acid (AA) sequence of this domain was used to develop and test potential therapeutic peptides. An MFG-E8 derived oligopeptide, MOP3, was developed based on 15 AA from MFG-E8 discoidin 2 domain (mimicking MFG-E8's C-terminal) and tagged with the 3 AA, RGD, (mimicking MFG-E8's binding capacity for the integrin receptor at the N-terminal). Binding of MOP3 to CIRP was quantified using Surface Plasmon Resonance (SPR) analysis. Macrophages (RAW264.7 cells) were treated with FITC-recombinant mouse (rm)-CIRP or co-incubated MOP3 and FITC-rmCIRP with and without a. Br-integrin Ab. After 1 h, cells were fixed and analyzed for intracellular FITC-rmCIRP by flow cytometry. Macrophages were stimulated with rmCIRP or co-incubated mixture of MOP3 and rmCIRP. After 4 h, cell culture supernatants were analyzed for inflammatory cytokine, TNFα.\nMouse macrophage cell line, RAW264.7 cells were obtained from American Type Culture Collection (ATCC) and cultured in DMEM media with 10% FBS, 1% penicillin and streptomycin, and 1% glutamine. Cells were kept in 37° C. incubator under humidified conditions containing 5% CO2.\nrmCIRP was labeled using a FITC Conjugation Kit (Abcam, ab188285), and rmMFG-E8 was labeled using Alexa Fluor Conjugation Kit (Abcam, ab269821), both according to respective manufacturer's instructions.\nIn order to visualize cellular uptake, we initially utilized TRITC-BSA as an internal probe, as BSA is taken up into cells primarily by endocytosis and retained intracellularly after fixation (27, 28). For further visualization of intracellular localization, we utilized LAMP1 primary antibody (as it is distributed among endolysosomal organelles and serves as a marker for lysosomal compartments) (29), and utilized lysotracker in live cell experiments (as it allows for imaging of dynamics of lysosome vesicle movements) (30). […] Images were quantified and analyzed using Image J, FIJI.(31) Flow cytometry. […]"}}, "data": [{"molecule": "milk fat globule-epidermal growth factor—factor VIII (protein, listed as Mus musculus) MQVSRVLAALCGMLLCASGLFAASGDFCDSSLCLNGGTCLTGQDNDIYCLCPEGFTGLVCNETERGPCSPNPCYNDAKCLVTLDTQRGDIFTEYICQCPVGYSGIHCETETNYYNLDGEYMFTTAVPNTAVPTPAPTPDLSNNLASRCSTQLGMEGGAIADSQISASSVYMGFMGLQRWGPELARLYRTGIVNAWTASNYDSKPWIQVNLLRKMRVSGVMTQGASRAGRAEYLKTFKVAYSLDGRKFEFIQDESGGDKEFLGNLDNNSLKVNMFNPTLEAQYIKLYPVSCHRGCTLRFELLGCELHGCSEPLGLKNNTIPDSQMSASSSYKTWNLRAFGWYPHLGRLDNQGKINAWTAQSNSAKEWLQVDLGTQRQVTGIITQGARDFGHIQYVASYKVAHSDDGVQWTVYEEQGSSKVFQGNLDNNSHKKNIFEKPFMARYVRVLPVSWHNRITLRLELLGC", "values": [{"measurement": "IL-6 levels in cell supernatants", "setting": "RAW264.7 cells; vs eCIRP alone", "result": "attenuated these levels in a dose-dependent manner"}, {"measurement": "TNFα levels in cell supernatants", "setting": "RAW264.7 cells; vs rmCIRP alone", "result": "attenuated these levels in a dose-dependent manner"}, {"measurement": "FITC-eCIRP uptake (confocal fluorescence microscopy)", "setting": "RAW264.7 macrophages; RAW264.7, 4 hours, vs FITC-eCIRP alone", "result": "marked increase of FITC-eCIRP uptake"}, {"measurement": "intracellular FITC-rmCIRP uptake (flow cytometry)", "setting": "RAW264.7 macrophages; RAW264.7, FITC-rmCIRP 1 μg/mL co-incubated with test substance (peptide 10 μg/mL), 1 hour, vs FITC-rmCIRP alone", "result": "enhanced internalization of FITC-eCIRP"}, {"measurement": "intracellular FITC-eCIRP with αvβ3-integrin neutralizing antibody (confocal fluorescence microscopy)", "setting": "RAW264.7 macrophages; RAW264.7, vs IgG isotype control", "result": "remarkably reduced"}, {"measurement": "intracellular FITC-rmCIRP uptake with αvβ3-integrin blocking antibody (flow cytometry)", "setting": "RAW264.7 macrophages; RAW264.7, αvβ3-integrin antibody 0.5 μg/mL", "result": "significantly reduced"}]}]}
